Experimental data reported in publication PMC6566460.

Target: recombinant histone H2B (UniProt P06899)
Assay: SEC + other: RP-HPLC; synthetic H2A.Z and recombinant H2B unfolded together (7 M Gdn·HCl, 20 mM mercaptoethanol, 20 mM Tris·HCl, pH 7.5; 2 h on ice), dialysed three times against refolding buffer (2.0 M NaCl, 2.0 mM mercaptoethanol, 10 mM Tris·HCl, pH 7.5) at 4 °C for 3 h; SEC of the reconstituted mixture, then RP-HPLC at 280 nm; ratio from peak areas and the number of tyrosines

synthetic histone H2A.Z (from UniProt P0C0S5 1-128) (natural protein)
stoichiometry N: 1
